In assay [1] the target is rHDL-apoA-I (reconstituted discoidal HDL particles carrying apolipoprotein A-I). Briefly: SPR (BIAcore 3000), biotinylated rHDL-apoA-I on streptavidin chip, PON1 injected, 25° C. On the technique in general: SPR reads the build-up and loss of mass on a sensor chip optically.
Assay [2] shares this target. Briefly: SPR, rHDL-apoA-I immobilised; reference Δ20-rePON1-192Q.

Here are results for three substances from patent US20100028924A1, “Method Of Diagnosing Pon1-Hdl Associated Lipid Disorders” (Rappaport Family Institute Research in the Medical Sciences, priority 2006, published 2010).

Δ20-rePON1-192R, sequence (P27170 other isoform, or with tags, fused parts or gaps mutant): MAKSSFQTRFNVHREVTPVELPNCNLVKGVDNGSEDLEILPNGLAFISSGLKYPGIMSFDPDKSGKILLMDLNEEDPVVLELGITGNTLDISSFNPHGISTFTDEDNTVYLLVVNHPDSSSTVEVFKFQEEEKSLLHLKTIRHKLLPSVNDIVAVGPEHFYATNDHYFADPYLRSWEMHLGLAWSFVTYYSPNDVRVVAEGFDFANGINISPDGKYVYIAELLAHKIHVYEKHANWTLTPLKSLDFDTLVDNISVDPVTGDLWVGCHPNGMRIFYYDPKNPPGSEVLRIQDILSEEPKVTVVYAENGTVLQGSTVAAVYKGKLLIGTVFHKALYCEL
wt Δ20-rePON1-192K, sequence (P27170 other isoform, or with tags, fused parts or gaps mutant): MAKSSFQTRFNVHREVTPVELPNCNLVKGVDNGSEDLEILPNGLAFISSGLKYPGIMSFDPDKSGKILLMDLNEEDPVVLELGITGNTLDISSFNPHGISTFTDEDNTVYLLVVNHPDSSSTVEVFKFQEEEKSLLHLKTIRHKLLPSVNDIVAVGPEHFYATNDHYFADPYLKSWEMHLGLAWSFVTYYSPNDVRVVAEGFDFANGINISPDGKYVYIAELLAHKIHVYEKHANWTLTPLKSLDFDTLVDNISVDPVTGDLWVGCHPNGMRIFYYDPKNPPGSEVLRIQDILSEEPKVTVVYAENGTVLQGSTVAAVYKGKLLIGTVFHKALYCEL
Δ20-rePON1-192Q, sequence (P27170 other isoform, or with tags, fused parts or gaps mutant): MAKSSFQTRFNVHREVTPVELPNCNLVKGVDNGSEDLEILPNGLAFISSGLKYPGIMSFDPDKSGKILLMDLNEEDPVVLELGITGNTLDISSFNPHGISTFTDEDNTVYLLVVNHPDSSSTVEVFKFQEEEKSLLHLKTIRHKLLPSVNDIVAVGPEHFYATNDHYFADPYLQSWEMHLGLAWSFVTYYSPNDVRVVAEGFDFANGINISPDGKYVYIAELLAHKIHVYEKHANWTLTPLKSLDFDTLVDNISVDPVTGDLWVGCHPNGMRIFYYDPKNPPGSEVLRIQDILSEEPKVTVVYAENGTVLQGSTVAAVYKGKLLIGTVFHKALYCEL

With “wt Δ20-rePON1-192K (from UniProt P27170 21-355) (enzyme)”, in assay [1], the equilibrium dissociation constant (Kd) was found to be 0.1 µM, the koff was determined as 0.02 s⁻¹ and the association rate constant (kon) worked out at 200000 M⁻¹ s⁻¹. Moreover, the fold higher HDL binding affinity than the Q isozyme in assay [2] is 3 fold.
Take “Δ20-rePON1-192Q (from UniProt P27170 21-355) (enzyme)”: in assay [1], the dissociation constant (Kd) worked out at 0.3 µM, the koff is 0.042 s⁻¹ and the kon came out at 140000 M⁻¹ s⁻¹.
In the case of “Δ20-rePON1-192R (from UniProt P27170 21-355) (enzyme)”, in assay [1], the Kd turned out to be 0.11 µM, the koff came out at 0.029 s⁻¹ and the kon worked out at 260000 M⁻¹ s⁻¹. In assay [2], this substance came in with a fold higher HDL affinity than the Q isozyme of 3 fold.

As usually defined, the Kd is the concentration at which binding is half-saturated. High values mean lower affinity, low ones higher affinity. As a reminder, the koff is the rate constant with which the complex falls apart. The low end stands for slow dissociation, the high end for fast dissociation. Broadly, the kon is a measure of how fast the partners come together. Higher therefore signals fast association.
